Blank lines part the entries; values can stand above or below the substance they belong to.
How the values were obtained:
[1] = biological target: origin recognition complex (ORC), wild type, unphosphorylated (S. cerevisiae) (UniProt P54784); experiment: colocalization single-molecule spectroscopy (CoSMoS); surface-tethered ARS1 DNA^AF488; 2.5 nM ORC, 10 nM Cdc6, 2.5 nM labeled Mcm2-7-Cdt1, ATP; time to the first Mcm2-7 association with each DNA, taken by the paper as OCCM formation; apparent first-order association rate, background binding at non-DNA sites fitted; conditions: remark: other sources report otherwise
[2] = biological target: phosphorylated origin recognition complex (ORC treated with Clb5-Cdk1 and ATP) (S. cerevisiae) (UniProt P54784); experiment: as above; conditions: remark: other sources report otherwise
[3] = biological target: ORC^6C-DY549, wild type, without CDK treatment (S. cerevisiae) (UniProt P54784); experiment: FRET or BRET; single-molecule FRET on surface-tethered ARS1 DNA between ORC^6C-DY549 (donor on Orc6 C-terminus) and Mcm2-7^3N-DY650 (acceptor on Mcm3 N terminus), with Cdc6 and Cdt1; MO complex (ORC on the N-terminal face of Mcm2-7) scored if E_FRET > 0.5 for two consecutive frames; low E_FRET in the OCCM
Mcm4 = Mcm4 (UniProt P30665); experiment: CoSMoS: labelled Mcm2-7 arrival at ORC-Cdc6-bound DNA; conditions: reference: wild-type ORC, no CDK

apparent first-order association rate ka of first Mcm2-7-Cdt1 recruitment (OCCM formation) [1]: 0.0047 s⁻¹
apparent first-order association rate ka of first Mcm2-7-Cdt1 recruitment (OCCM formation) [2]: 0.002 s⁻¹
Substance: Cdt1-Mcm2-7^4SNAP-JF646 (Mcm2-7-Cdt1 complex, Mcm2-7 fluorescently labeled at the N-terminus of Mcm4), P29469 1-868; P24279 1-971; P30665 1-933; P29496 1-775; P53091 1-1017; P38132 1-845; P47112 1-604

percent of first Mcm2-7 landings with the high-E FRET state (MO complex formation) [3]: 21%
Substance: Mcm2-7^3N-DY650 (Mcm2-7 complex with an acceptor fluorophore at the N terminus of Mcm3) (from UniProt P29469 1-868; P24279 1-971; P30665 1-933; P29496 1-775; P53091 1-1017; P38132 1-845)

other: apparent association rate ka (Mcm4): weaker; reference 0.0047 ± 0.0003
Substance: Orc6 (from UniProt P38826) wild-type ORC treated with Clb5-Cdk1 and ATP
